According to publication doi:10.1101/2025.09.11.675134, “Biodistribution-Driven Discovery Identifies a Glycosidase-Cleavable Linker to Reprogram Radiotheranostics” (bioRxiv, 2025):
Where two headings read alike, the source gives them in different places.

Columns and labels:
[1] = Ex vivo biodistribution of 225Ac-labeled variants in AR42J tumor-bearing mice; settings: athymic nu/nu, mouse, total radioactivity; for tissue uptake at 24 h: 24 h post-injection
Method: Prior to conducting targeted alpha-particle therapy studies using three ^225Ac-labeled variants (Fig. S17) in AR42J xenograft-bearing mice, we first assessed their in vivo pharmacokinetics through ex vivo biodistribution studies at 24 h post-injection (Fig. 5A; Tables S4). […]
For studies involving three variants (DOTA -TATE, DOTA-MVK(ε)-TATE, and DOTA-β-Gal-TATE), AR42J cells (5 × 10^6 cells per mouse) were subcutaneously inoculated into the right shoulder of the mice. Tumors were allowed to grow for 3 weeks, reaching a volume of 100 –200 mm³ before being used in subsequent experiments. […]
All samples […]
were weighed and counted on a gamma counter (2480 Wizard 3, Perkin Elmer Inc., Waltham, MA, USA). Results are presented as percentage of injected activity per gram (%IA/g) and mean values ± standard deviations. […]
Prior to conducting alpha particle therapy, biodistribution studies with 225Ac-labeled DOTA - TATE variants (117 – 163 kBq, 1 μg) were performed at 24 hours and 4 days post -injection in athymic nu/nu mice bearing AR42J tumors (n = 4 – 5). Mice were euthanized by CO 2 asphyxiation, and 10 tissues, including tumors, were collected. All samples were weighed and counted on a gamma counter after equilibration for 12 hours. Results are presented as %IA/g and mean values ± standard deviations.

AR42J xenografts = assay: Dosimetry estimates of 225Ac-labeled variants from biodistribution data; format: in vivo, athymic nu/nu mice; settings: mouse, in vivo
Text: To evaluate the organ-level radiation absorbed dose resulting from different DOTA-TATE derivatives, we calculated the total effective dose per unit of injected activity (Eff Dose/IA, mSv/MBq) for ^225Ac-labeled variants based on biodistribution data in AR42J xenograft-bearing mice (Tables S5).
Estimated absorbed doses for individual organs for ^225Ac- and ^86Y-labeled DOTA-TATE variants were derived from residence times calculated using %IA/g data from biodistribution studies. The time–activity curves incorporated data from both radionuclides to provide complete coverage of early and late time points. Details of the dosimetry methodology, including time–activity curve construction, integration approach, decay assumptions, and conversion to effective dose, are provided in the Supplementary Information.
Dosimetry: The dosimetry was calculated by measuring the residence time per gram for each organ using the percent injected activity per gram (%IA/g) data collected for the biodistribution study. Because two biodistribution data sample groups were collected, one for the 86Y and the other for the 225Ac variant of the three DOTA-TATE variants (DOTA-TATE, DOTA-MVK(ε)- TATE, and DOTA-β-Gal-TATE) the %IA/g time activity curves (TAC) of the 86Y variant were merged with the 225Ac TACs. This was possible because of the difference in half lives between 86Y and 225Ac being 14.74 and 237.8 hours respectively setting the measurement time points to be 1, 4 and 24 hours for the 86Y ligands and 24, 96 hours for 225Ac. The full time activity curve is thus made up of the 1 and 4 hour time points of the 86Y %IA/g data points, an average of the common 24 hour time point of the 86Y and 225Ac %IA/g data points and the last 96 hour %IA/g time point of the 225Ac samples. The full 4 time points of 1, 4, 24, and 96 hours making up the […]
from which the residence times were calculated.
The integration of the TAC was performed using trapezoidal interpolation between time points.
The first time point assumed constant activity and a decay curve with the half life of the radioisotope was used to estimate activity beyond 96 hours. The average %IA/g was used for each tissue sample for each time point and the resulting standard deviation of the average was then used as the error estimate per time point to propagate through the residence time calculation.
Using the residence time for each TAC, the dose was calculated by looking up the dose per decay for each alpha, beta (positron and electron from nuclear beta decay) and electron emission listed in the nuclear data sheets provided by the Brookhaven National Laboratory National Nuclear Data Center. Since the 225Ac decays via a complicated decay chain, it is assumed that the dose from the daughters remains in the tissue assuming no biological dissemination once the 225Ac decays breaking the bonds of the DOTA-TATE ligand. The following mean dose per decay were used. For 225Ac, 27.58MeV/Bq-s for alpha emissions, 1.33MeV/Bq-s for beta plus electron emissions. For 86Y, 0.219 MeV/Bq-s for beta and electron emissions. Gamma emissions were ignored because of the small size of the tissue samples have small gamma absorption effects which would contribute negligibly to the dose calculation. Furthermore, dosimetry estimate […]
inter organ activity can be calculated(62).
To estimate the effective dose in mSv/MBq, a radiological factor of 5 was used to multiply the dose calculated from the alpha ionizations while a factor of 1 was used for the beta and electron ionizations to convert from mGy/MBq to mSv/MBq (63, 64).

[2] = iv, 1 ug, 225Ac-labeled, AR42J tumor-bearing mice, ex vivo, mean (± SD), n = 4–5, read-out: Kidney uptake
[3] = iv, 1 ug, 225Ac-labeled, AR42J tumor-bearing mice, ex vivo, mean (± SD), n = 4–5, read-out: Liver uptake
[4] = iv, 1 ug, 225Ac-labeled, AR42J tumor-bearing mice, ex vivo, mean (± SD), n = 4–5, read-out: Tumor uptake
[5] = iv, 1 ug, 225Ac-labeled, AR42J tumor-bearing mice, ex vivo, mean, n = 4–5, read-out: Femur uptake
[6] = iv, 1 ug, 225Ac-labeled, AR42J tumor-bearing mice, ex vivo, mean, n = 4–5, read-out: Intestine uptake
[7] = iv, 1 ug, 225Ac-labeled, AR42J tumor-bearing mice, ex vivo, mean, n = 4–5, read-out: Spleen uptake
[8] = iv, 1 ug, 225Ac-labeled, AR42J tumor-bearing mice, i.v. 1 μg (117–163 kBq), ex vivo gamma counting, mean, n = 4–5, read-out: Blood uptake
[9] = iv, 1 ug, 225Ac-labeled, AR42J tumor-bearing mice, 4 days post-injection, ex vivo, mean, n = 4–5, read-out: Blood uptake
[10] = iv, 1 ug, 225Ac-labeled, AR42J tumor-bearing mice, 4 days post-injection, ex vivo, mean, n = 4–5, read-out: Femur uptake
[11] = iv, 1 ug, 225Ac-labeled, AR42J tumor-bearing mice, 4 days post-injection, ex vivo, mean, n = 4–5, read-out: Intestine uptake
[12] = iv, 1 ug, 225Ac-labeled, AR42J tumor-bearing mice, 4 days post-injection, ex vivo, mean, n = 4–5, read-out: Kidney uptake
[13] = iv, 1 ug, 225Ac-labeled, AR42J tumor-bearing mice, 4 days post-injection, ex vivo, mean, n = 4–5, read-out: Liver uptake
[14] = iv, 1 ug, 225Ac-labeled, AR42J tumor-bearing mice, 4 days post-injection, ex vivo, mean, n = 4–5, read-out: Muscle uptake
[15] = iv, 1 ug, 225Ac-labeled, AR42J tumor-bearing mice, 4 days post-injection, ex vivo, mean, n = 4–5, read-out: Spleen uptake
[16] = 225Ac-labeled, AR42J tumor-bearing mice, ex vivo, mean, n = 4–5, read-out: Heart uptake
[17] = 225Ac-labeled, AR42J tumor-bearing mice, ex vivo, mean, n = 4–5, read-out: Lung uptake
[18] = 225Ac-labeled, AR42J tumor-bearing mice, ex vivo, mean, n = 4–5, read-out: Muscle uptake
[19] = 225Ac-labeled, AR42J tumor-bearing mice, 4 days post-injection, ex vivo, mean, n = 4–5, read-out: Heart uptake
[20] = 225Ac-labeled, AR42J tumor-bearing mice, 4 days post-injection, ex vivo, mean, n = 4–5, read-out: Lung uptake

| Compound | tissue uptake at 24 h [1, 2] | tissue uptake at 24 h [1, 3] | tissue uptake at 24 h [1, 4] | tissue uptake at 24 h [1, 5] | tissue uptake at 24 h [1, 6] | tissue uptake at 24 h [1, 7] | tissue uptake at 24 h [1, 8] | tissue uptake at 96 h [1, 9] | tissue uptake at 96 h [1, 10] | tissue uptake at 96 h [1, 11] | tissue uptake at 96 h [1, 12] | tissue uptake at 96 h [1, 13] | tissue uptake at 96 h [1, 14] | tissue uptake at 96 h [1, 15] | tissue uptake at 96 h [1] | tissue uptake at 24 h [1, 16] | tissue uptake at 24 h [1, 17] | tissue uptake at 24 h [1, 18] | tissue uptake at 96 h [1, 19] | tissue uptake at 96 h [1, 20] | also measured |
| --- | --- | --- | --- | --- | --- | --- | --- | --- | --- | --- | --- | --- | --- | --- | --- | --- | --- | --- | --- | --- | --- |
| CSCC[C@H](NC(=O)CN1CCN(CC(=O)O)CCN(CC(=O)O)CCN(CC(=O)O)CC1)C(=O)N[C@H](C(=O)N[C@@H](CCCCNC(=O)CCCC(=O)N[C@H](Cc1ccccc1)C(=O)N[C@H]1CSSC[C@@H](C(=O)N[C@H](C(=O)O)[C@@H](C)O)NC(=O)[C@H]([C@@H](C)O)NC(=O)[C@H](CCCCN)NC(=O)[C@@H](Cc2c[nH]c3ccccc23)NC(=O)[C@H](Cc2ccc(O)cc2)NC1=O)C(=O)O)C(C)C [^225Ac-DOTA-MVK(ε)-TATE, metal not drawn] | 1.27 ± 0.25 %ID/g | 0.61 ± 0.06 %ID/g | 3.83 ± 0.51 %ID/g | 0.33 %ID/g | 0.11 %ID/g | 0.32 %ID/g | 0.03 %ID/g | 0.03 %ID/g | 0.32 %ID/g | 0.07 %ID/g | 0.43 %ID/g | 0.42 %ID/g | 0.15 %ID/g | 0.19 %ID/g | 2.41 ± 0.22 %ID/g | 0.08 %ID/g | 0.14 %ID/g | 0.09 %ID/g | 0.12 %ID/g | 0.11 %ID/g | tissue to tissue ratio at 24 h [1]: 3.05 ± 0.37; tissue to tissue ratio at 96 h [1]: 5.72 ± 0.91; Absorbed dose to kidney (AR42J xenografts): 5.7 Gy; Absorbed dose to tumor (AR42J xenografts): 20.4 Gy; Reduction of kidney dose versus 225Ac-DOTA-TATE (AR42J xenografts): 65 to 70%; Total effective dose per injected activity, Blood (AR42J xenografts): 3.44E+03 mSv/MBq; Total effective dose per injected activity, Femur (AR42J xenografts): 4.19E+04 mSv/MBq; Total effective dose per injected activity, Heart (AR42J xenografts): 1.06E+04 mSv/MBq; Total effective dose per injected activity, Intestine (AR42J xenografts): 2.36E+04 mSv/MBq; Total effective dose per injected activity, Kidney (AR42J xenografts): 1.85 × 10^5 mSv/MBq; Total effective dose per injected activity, Liver (AR42J xenografts): 1.02E+05 mSv/MBq; Total effective dose per injected activity, Lung (AR42J xenografts): 1.95E+04 mSv/MBq; Total effective dose per injected activity, Muscle (AR42J xenografts): 7.16E+03 mSv/MBq; Total effective dose per injected activity, Spleen (AR42J xenografts): 2.55E+04 mSv/MBq; Total effective dose per injected activity, Tumor (AR42J xenografts): 6.64 × 10^5 mSv/MBq |
| C[C@@H](O)[C@H](NC(=O)[C@@H]1CSSC[C@H](NC(=O)[C@@H](Cc2ccccc2)NC(=O)CN2CCN(CC(=O)O)CCN(CC(=O)O)CCN(CC(=O)O)CC2)C(=O)N[C@@H](Cc2ccc(O)cc2)C(=O)N[C@H](Cc2c[nH]c3ccccc23)C(=O)N[C@@H](CCCCN)C(=O)N[C@@H]([C@@H](C)O)C(=O)N1)C(=O)O [^225Ac-DOTA-TATE, metal not drawn, reference compound] | 4.19 ± 0.28 %ID/g | 0.29 ± 0.02 %ID/g | 3.4 ± 0.34 %ID/g | 0.2 %ID/g | 0.09 %ID/g | 0.16 %ID/g | 0.03 %ID/g | 0.04 %ID/g | 0.41 %ID/g | 0.1 %ID/g | 1.02 %ID/g | 0.65 %ID/g | 0.16 %ID/g | 0.27 %ID/g | 1.14 ± 0.37 %ID/g | 0.06 %ID/g | 0.14 %ID/g | 0.1 %ID/g | 0.14 %ID/g | 0.16 %ID/g | Absorbed dose to kidney (AR42J xenografts): 16.2 Gy; Absorbed dose to tumor (AR42J xenografts): 13.2 Gy; Total effective dose per injected activity, Blood (AR42J xenografts): 4.00E+03 mSv/MBq; Total effective dose per injected activity, Femur (AR42J xenografts): 5.86E+04 mSv/MBq; Total effective dose per injected activity, Heart (AR42J xenografts): 1.42E+04 mSv/MBq; Total effective dose per injected activity, Intestine (AR42J xenografts): 3.04E+04 mSv/MBq; Total effective dose per injected activity, Kidney (AR42J xenografts): 5.27 × 10^5 mSv/MBq; Total effective dose per injected activity, Liver (AR42J xenografts): 6.47E+04 mSv/MBq; Total effective dose per injected activity, Lung (AR42J xenografts): 3.85E+04 mSv/MBq; Total effective dose per injected activity, Muscle (AR42J xenografts): 9.33E+03 mSv/MBq; Total effective dose per injected activity, Spleen (AR42J xenografts): 3.41E+04 mSv/MBq; Total effective dose per injected activity, Tumor (AR42J xenografts): 4.30 × 10^5 mSv/MBq |
